Data on 1 substance can be found in article PMC10797183.

Assay [1] deals with Acanthamoeba castellanii actin (Acanthamoeba castellanii).
Assay [2] shares this target. This is another data set of the same source.

Take “Fhod-B (C-terminal half: FH1 and FH2 domains and the Fhod-B tail) (domain or fragment)”: the median run length (length of dim filaments after 5 min), TIRF microscopy with profilin; said to be an underestimate in assay [1] was 24 μm. For the same substance, the run length, mean of three independent samples, TIRF microscopy with profilin in assay [2] came out at 24.1 μm.
